Measured values reported in patent US20190248882A1 (ALLERGAN, published 2019).

Biological target: T1, human ANG-2 (R&D Systems) (human, UniProt O15123 68-496, limits assumed, biotinylated in the Tie-2 competition ELISA (site not stated))
T1 construct: Protein bought from R&D Systems; It was unlabelled in the Octet assay and biotinylated in the ELISA; also called angiopoietin-2; ANGPT2
T1 sequence: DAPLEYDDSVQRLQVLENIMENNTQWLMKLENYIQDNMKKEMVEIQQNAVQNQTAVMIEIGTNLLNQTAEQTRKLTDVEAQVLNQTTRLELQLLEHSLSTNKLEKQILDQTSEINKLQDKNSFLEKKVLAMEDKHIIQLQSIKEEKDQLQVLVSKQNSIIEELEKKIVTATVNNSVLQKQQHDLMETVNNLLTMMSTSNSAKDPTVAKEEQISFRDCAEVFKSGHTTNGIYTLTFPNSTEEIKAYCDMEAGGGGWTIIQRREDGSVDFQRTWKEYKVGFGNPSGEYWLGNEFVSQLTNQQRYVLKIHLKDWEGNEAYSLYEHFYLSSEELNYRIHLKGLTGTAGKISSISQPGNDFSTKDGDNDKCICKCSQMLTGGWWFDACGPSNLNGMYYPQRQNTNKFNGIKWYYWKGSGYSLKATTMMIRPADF
Test: BLI (Octet QKe); HCAb captured on anti-hIgG Fc tips, ANG-2 at 20 to 500 nM in solution
Description: Affinity measurements were performed using a fortéBIO OCTET® QK^e system equipped with anti-hlgG Fc capture (AHC) biosensor tips and strepavidin-coated biosensors (fortéBIO, Menlo Park, Calif.). For AHC affinity measurement, purified anti-ANG-2 HCAb A33A8 was tested for its binding capacity with AHC sensor tips. Tips were loaded using 20 μg/ml anti-ANG-2 A33A8 HCAb. Loading proceeded for 300 sec resulting in capture levels of between 1.8 and 2 nm. ANG-2 (R & D systems) antigen was prepared for binding analysis by dilution to concentrations of 20 to 500 nM in 1×PBS. Association was initiated and monitored for 200 sec, after which tips were transferred to 1×PBS buffer without Factor protein (Gibco, PBS pH 7.2), in order to monitor dissociation. Anti-ANG-2 A33A8 HCAb binding activity was then monitored in real time using bio-layer interferometry analysis. Antigen binding affinities were calculated for the tested ANG-2 based on the measured association (“Kassoc”) and dissociation (“Kdissoc”) constants. Data were processed and analyzed using the OCTET® data analysis software 6.4 (fortéBIO) (FIG. 4).

Kd: < 1 pM
B1: A33A8 human anti-ANG-2 HCAb (antibody, human IgG1, V domains shown)
VH: QVQLVESGGGLVQPGGSLRLSCAASGFTFSSYWMHWVRQAPGKGLVWVSRINSDGSSTSYADSVKGRFTISRDNAKNTLYLQMNSLRAEDTAVYYCAREGYSSGGQFDYWGQGTLVTVSS
notes: also called anti-ANG-2 HCAb A33A8; anti-ANG-2 A33A8 HCAb
